The test addresses GST tag (glutathione S-transferase affinity tag, free in the ATAD2B sample). Description: SEC; Superdex 200 Increase 10/300 GL on an ÄktaPrime system, ATAD2B sample from E. coli compared with a molecular weight standard mixture (thyroglobulin 670 kDa, ovalbumin 44 kDa). A general note: In gel filtration, larger molecules generally elute earlier.

GST tag (glutathione S-transferase affinity tag, free in the ATAD2B sample), sequence (P08515 2-218): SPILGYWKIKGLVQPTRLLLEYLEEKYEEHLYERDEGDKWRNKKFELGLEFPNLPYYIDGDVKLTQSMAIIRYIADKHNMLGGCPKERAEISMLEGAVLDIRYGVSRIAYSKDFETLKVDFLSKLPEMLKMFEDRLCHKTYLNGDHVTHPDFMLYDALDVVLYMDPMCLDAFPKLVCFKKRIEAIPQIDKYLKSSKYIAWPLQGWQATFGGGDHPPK

Turning to “GST tag (glutathione S-transferase affinity tag, free in the ATAD2B sample) (natural protein)”, the stoichiometry N amounted to 2.

One may read the stoichiometry N as the number of molecules, sites or subunits per partner or assembly.

Source of the values: publication doi:10.1101/2025.10.13.682238.
